Laboratory results taken from US20230357415A1 (AJOU UNIVERSITY INDUSTRY ACADEMIC COOPERATION FOUNDATION, published 2023).
Where a chain is given by its changes, count along the chain named. Where two headings read alike, the source gives them in different places.

Experiments:
[1] = target: T1, sIL-5Rα antigen protein (Sinobio 10392-H08H) (Homo sapiens (Human), UniProt Q01344 21-342); assay: indirect ELISA; plate-coated sIL-5Rα, antibody 100 nM, anti-human Fc-HRP, absorbance at 450 nm
T1 construct: Bought protein immobilised in the indirect ELISAs; also called soluble IL-5Rα; CD125
T1 sequence: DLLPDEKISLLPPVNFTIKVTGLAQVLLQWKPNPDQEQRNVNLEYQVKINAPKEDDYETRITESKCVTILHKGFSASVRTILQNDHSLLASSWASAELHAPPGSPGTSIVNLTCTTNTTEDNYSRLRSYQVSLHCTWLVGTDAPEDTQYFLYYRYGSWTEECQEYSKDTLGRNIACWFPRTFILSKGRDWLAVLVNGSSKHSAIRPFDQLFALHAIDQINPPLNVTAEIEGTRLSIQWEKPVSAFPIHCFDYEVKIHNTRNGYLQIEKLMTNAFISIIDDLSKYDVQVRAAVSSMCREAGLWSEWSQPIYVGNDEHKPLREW
Experimental: (§1) The binding specificity of the antibody was determined using indirect ELISA. A multi-antigen ELISA was performed using four structurally different antigenic double-stranded DNA (dsDNA), insulin, the macromolecule hemocyanin, and the membrane component, cardiolipin. Specifically, sIL-4Rα antigen protein (50 ng/well, sinobio; 10402-H08H), sIL-5Rα antigen protein (50 ng/well, sinobio; 10392-H08H), dsDNA (25 ng/well, D4522; Sigma), insulin (125 ng/well, 19278; Sigma), hemocyanin (125 ng/well, H8283; Sigma), and cardiolipin (1250 ng/well, C0563; Sigma) proteins were immobilized on a 96-well plate at room temperature for 1 hour, and blocked using 2% skim milk containing 0.1% PBST (0.1% Tween20, pH 7.4, 137 mM NaCl, 10 mM phosphate, 2.7 mM KCl) at room temperature for 1 hour. After discarding the solution and then washing the same three times with 0.1% PBST, the antibody was diluted to 100 nM, added to the blocked plate in an amount of 25 μl/well, and allowed to react at room temperature for 1 hour. After discarding the solution and washing the same three times with 0.1% PBST, an anti-human Fc-HRP antibody (1:8000) as a secondary antibody was added in an amount of 25 μl/well and reacted at room temperature for 1 hour. After discarding the solution and washing three times with PBST, a TMB solution was added in an amount of 25 μl/well, color development was induced at room temperature for 2 minutes, the reaction was stopped using H₂SO₄ (2N), and the absorbance at 450 nm was measured with an ELISA reader.

[2] = target: T2, sIL-4Rα (soluble IL-4Rα) antigen protein (human, UniProt P24394 26-232); assay: BLI (Octet QKe), antibody on AHC sensor, sIL-4Rα in solution, 1:1 model
T2 construct: The ELISA and Octet assays used the bought protein (Sinobio 10402-H08H); also called CD124; sinobio 10402-H08H
Experimental: Antigen affinity of antibodies was analyzed through variation in the refractive index occurring when the antibody bound to the antigen was detached therefrom while the AHC (anti-human IgG Fc capture) sensor chip moved in the order of kinetic buffer, antibody dilution solution, kinetic buffer, antigen dilution solution, and kinetic buffer. Affinity was calculated with Octet Data Analysis software 11.0 in a 1:1 binding model.

[3] = target: T3, insulin (Homo sapiens (Human), UniProt P01308 25-54; P01308 90-110, Mature two-chain hormone: A and B chains joined by two interchain disulfides, plus one intrachain disulfide in the A chain; the letters do not carry these.); assay: indirect ELISA; plate-coated insulin, antibody 100 nM, anti-human Fc-HRP, absorbance at 450 nm
T3 construct: Irrelevant antigen of the multi-antigen specificity ELISA; also called insulin (125 ng/well, 19278; Sigma)
Experimental: as §1

[4] = target: T4, purified sIL-5Rα (Asp1-Asn313 of SEQ ID NO: 66) (Homo sapiens (Human), UniProt Q01344 21-333); assay: BLI (Octet QKe), antibody on AHC sensor, purified sIL-5Rα in solution, 1:1 model
T4 construct: also called the purified sIL-5Rα
T4 sequence: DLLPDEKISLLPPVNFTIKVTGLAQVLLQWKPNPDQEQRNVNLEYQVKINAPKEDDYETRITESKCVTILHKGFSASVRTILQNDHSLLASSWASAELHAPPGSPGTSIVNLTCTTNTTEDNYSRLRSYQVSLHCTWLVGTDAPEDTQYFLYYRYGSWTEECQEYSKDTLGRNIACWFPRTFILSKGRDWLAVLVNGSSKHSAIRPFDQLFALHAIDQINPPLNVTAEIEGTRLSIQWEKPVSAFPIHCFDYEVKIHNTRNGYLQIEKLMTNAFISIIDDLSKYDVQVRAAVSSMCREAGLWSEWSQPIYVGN
Experimental: Specifically, lx kinetic buffer was prepared by diluting 10× kinetic buffer (ForteBio, 18-1105) in PBS. […] Affinity was calculated with Octet Data Analysis software 11.0 in a 1:1 binding model.

[5] = target: T3, insulin; assay: indirect ELISA; plate-coated insulin, antibody 100 nM, anti-human Fc-HRP, absorbance at 450 nm; remark: listed apart in the source
Experimental: as §1, with “of anti-IL-5Rα humanized antibodies” for “of the antibody”, “ng/well, Sinobio;” for “ng/well, sinobio;”, “[…],” for “25 μl/well,”, “hour. […]” for “hour. After discarding the solution and washing the same three times with 0.1% PBST, an anti-human Fc-HRP antibody (1:8000) as a secondary antibody was added in an amount of 25 μl/well and reacted at room temperature for 1 hour.”

[6] = target: T2, sIL-4Rα (soluble IL-4Rα) antigen protein; assay: indirect ELISA; plate-coated sIL-4Rα, antibody 100 nM, anti-human Fc-HRP, absorbance at 450 nm
Experimental: as §1, with “of anti-IL-5Rα humanized antibodies” for “of the antibody”, “ng/well, Sinobio;” for “ng/well, sinobio;”, “[…],” for “25 μl/well,”, “hour. […]” for “hour. After discarding the solution and washing the same three times with 0.1% PBST, an anti-human Fc-HRP antibody (1:8000) as a secondary antibody was added in an amount of 25 μl/well and reacted at room temperature for 1 hour.”

T3 sequence (P01308 25-54 limits assumed, chain 1 of 2): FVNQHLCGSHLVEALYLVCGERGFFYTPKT
T3 sequence (P01308 90-110 limits assumed, chain 2 of 2): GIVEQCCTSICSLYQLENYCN

B1: 4R34.1.19 antibody (antibody, V domains shown)
VH: EVQLLESGGGLVQPGGSLRLSCAASGFTFSRHAMAWVRQAPGKGLEWVSAITSSGRSIYYADSVKGRFTISRDNSKNTLYLQMNSLRAEDTAVYYCARVHRAFDYWGQGTLVTVSS
VL: QSVLTQPPSASGTPGQRVTISCSGSPLFPDSGSFNWYQQLPGTAPKLLIYADSHRPSGVPDRFSGSKSGTSASLAISGLRSEDEADYYCGTWDYSLSGYVLGGGTKLTVLG
notes: Parent anti-IL-4Rα antibody, tested as IgG1 and captured through human Fc; also called anti-IL-4Rα antibody (4R34.1.19)
- binding result [1]: binds

B2: 4R.N4 (antibody, V domains shown)
VH: B1 VH with S53M, S57G
VL: B1 VL with G98A
notes: Converted from scFab to IgG1 and expressed in HEK293F
- Kd [2]: 0.0997 nM
- koff [2]: 0.000162 s⁻¹
- kon [2]: 1.63e+06 M⁻¹ s⁻¹
- binding result [1]: no binding (tested: 100 nM)
- binding result [3]: no binding (tested: 100 nM)

B3: 4R.N7 (antibody, V domains shown)
VH: B1 VH with S53A
VL: B1 VL with G98S
notes: as for B2
- Kd [2]: 0.0431 nM
- koff [2]: 6.07e-05 s⁻¹
- kon [2]: 1.55e+06 M⁻¹ s⁻¹
- binding result [1]: no binding (tested: 100 nM)
- binding result [3]: no binding (tested: 100 nM)

B4: 4R.N5 (antibody, V domains shown)
VH: B1 VH with S53A, R56M, S63F, V64A
VL: B1 VL with S97N, G98R
notes: as for B2
- Kd [2]: 0.0748 nM
- koff [2]: 0.00012 s⁻¹
- kon [2]: 1.6e+06 M⁻¹ s⁻¹

B5: 4R.N6 (antibody, V domains shown)
VH: B1 VH with S53M
VL: B1 VL with S97N, G98S
notes: as for B2
- Kd [2]: 0.0705 nM
- koff [2]: 0.000126 s⁻¹
- kon [2]: 1.79e+06 M⁻¹ s⁻¹
- binding result [1]: no binding (tested: 100 nM)
- binding result [3]: no binding (tested: 100 nM)

B6: 4R.N1 (antibody, V domains shown)
VH: B1 VH with S53A
VL: B1 VL with S97N, G98R
notes: Converted from scFab to IgG1 (pcDNA3.4 vector with IgG1 constant regions) and expressed in HEK293F
- Kd [2]: 0.17 nM
- koff [2]: 0.000338 s⁻¹
- kon [2]: 1.99e+06 M⁻¹ s⁻¹
- binding result [1]: no binding (tested: 100 nM)
- binding result [3]: no binding (tested: 100 nM)

B7: 4R.N3 (antibody, V domains shown)
VH: B1 VH with S53M
VL: B1 VL with S97N, G98R
notes: as for B2
- Kd [2]: 0.0686 nM
- koff [2]: 0.000139 s⁻¹
- kon [2]: 2.02e+06 M⁻¹ s⁻¹
- binding result [1]: no binding (tested: 100 nM)
- binding result [3]: no binding (tested: 100 nM)

B8: 5R65 (antibody, V domains shown)
VH: QVQLVQSGAEVKKPGSSVKVSCKASGYTFTSYWINWVRQAPGQGLEWIGHIYPNKNENYYNHKFKDKATLTVDKSTNTAYMELSSLRSEDTAVYYCTRDYYGRSYYYAMDYWGQGTTLTVSS
VL: DIQMTQSPSTLSASVGDRVTITCKASQNVGTAVAWYQQKPGKAPKLLIYWASTRHTGVPDRFSGSGSGTDFTLTISSLQPDDFATYYCQQFGRYPYTFGSGTKVEVK
notes: IgG1 (variable regions in a pcDNA3.4 vector encoding IgG1 constant regions); also called anti-IL-5Rα humanized antibody 5R65; anti-IL-5Rα antibody (5R65)
- Kd [4]: 14.5 nM
- koff [4]: 0.000329 s⁻¹
- kon [4]: 22700 M⁻¹ s⁻¹

B9: 5R65.18 (antibody, IgG1, V domains shown)
VH: B8 VH with D99E, S104T, Y107S
VL: B8 VL
notes: IgG1
- Kd [4]: 5.95 nM
- koff [4]: 0.000133 s⁻¹
- kon [4]: 22400 M⁻¹ s⁻¹

B10: 5R65.14 (antibody, IgG1, V domains shown)
VH: B8 VH with D99E, Y100H, S104P, Y107N
VL: B8 VL
notes: IgG1
- Kd [4]: 8.64 nM
- koff [4]: 0.000199 s⁻¹
- kon [4]: 23000 M⁻¹ s⁻¹

B11: 5R65.10 (antibody, IgG1, V domains shown)
VH: B8 VH with D99E, Y107A
VL: B8 VL
notes: IgG1
- Kd [4]: 8.25 nM
- koff [4]: 0.000201 s⁻¹
- kon [4]: 24400 M⁻¹ s⁻¹

B12: 5R65.45 (antibody, IgG1, V domains shown)
VH: B8 VH with D99E, Y107N
VL: B8 VL
notes: IgG1
- binding result [5]: no binding (tested: 100 nM)
- Kd [4]: 7.26 nM
- koff [4]: 0.000181 s⁻¹
- kon [4]: 24900 M⁻¹ s⁻¹
- binding result [6]: no binding (tested: 100 nM)

B13: 5R65.7 (antibody, IgG1, V domains shown)
VH: B8 VH with D99E, Y100F, S104Q, Y107Q
VL: B8 VL
notes: IgG1
- Kd [4]: 4.64 nM
- koff [4]: 0.000147 s⁻¹
- kon [4]: 31700 M⁻¹ s⁻¹

B14: 5R65.39 (antibody, IgG1, V domains shown)
VH: B8 VH with D99E, Y100F, Y105R, Y107S
VL: B8 VL
notes: IgG1
- binding result [5]: no binding (tested: 100 nM)
- Kd [4]: 6.13 nM
- koff [4]: 0.000171 s⁻¹
- kon [4]: 28000 M⁻¹ s⁻¹
- binding result [6]: no binding (tested: 100 nM)
